This is an account of results in patent US9611465B2, “Pharmaceutical composition containing core factor involved in proliferation and differentiation of central nervous cell” (Celgene Corporation, priority 2009, dated 2017).

Where a SMILES comes first, the peptide text is derived from it. The star is where a group is joined. Cbz = O=C(OCc1ccccc1)*

Experiment [1] concerns the target T1, Ub/E1/E2 (GST fusion ubiquitin, Uba1, UbcH5b) (Homo sapiens, UniProt P0CG47+P22314+P62837).
T1 construct: a recombinant GST fusion ubiquitin (Ub) protein
Briefly: Ubiquitin ligase activity of CRBN using an in vitro reaction system. Particulars: added to Uba1, UbcH5b and GST fusion ubiquitin; FIG. 4, lane 2. Format: biochemical. Here is the method: This process was carried out basically in accordance with the method of Groisman et al. Firstly, CRBN and a binding protein (referred to as a CRBN complex) were purified from a cell lysate solution of mammalian cells expressing CRBN fused with a FLAG epitope tag using M2 FLAG agarose beads (SIGMA). Subsequently, the CRBN complex thus purified was mixed with an aqueous solution containing Uba1 (E1), UbcH5b (E2), and a recombinant GST fusion ubiquitin (Ub) protein, and after addition of ATP, the mixture was left to stand at 30 to 37° C. for two hours. Thereafter, the reaction was terminated by SDS, and self-ubiquitination and ubiquitination of the binding protein were visualized by polyacrylamide gel electrophoresis and immunoblotting, whereby the ubiquitin ligase activity was detected and measured.

The subject of experiment [2] is mammalian cells expressing CRBN fused with a FLAG epitope tag. Description: CRBN ubiquitin ligase activity using live cells (self-ubiquitination, immunoblotting). Particulars: MG132 added versus not added (FIG. 5). Format: cell-based. On the procedure:
This process was carried out basically in accordance with the method of Ohtake et al. MG132, which is a proteasome inhibitor, was applied to mammalian cells expressing CRBN fused with a FLAG epitope tag, and the cells were left still. Subsequently, the cells were disrupted, and from the resulting cell lysate solution, FLAG was purified and CRBN was extracted, and then immunoblotting was performed under similar, but stricter, conditions to the above, whereby the self-ubiquitination was detected and measured.
Background: Immunoblotting shows a protein as a band on a membrane.

For experiment [3], the system named is zebrafish embryo brain. Briefly: Determination of functional hierarchy of Lhx2 and CRBN (knockdown plus head-specific overexpression). Format: in vivo. Here is the method: (§1) The method of lipofection was entirely in accordance with the technique developed and published by Ando et al. (Ando and Okamoto, Efficient transfection strategy for the spatiotemporal control of gene expression in zebrafish. Mar. Biotechnol. 8(3): 295-303, 2006).
An aqueous solution of a 25-mer antisense morpholino oligonucleotide (AMO, Gene Tools, LLC) corresponding to the vicinity of the translation initiation codon in the cDNA sequence of the gene to be knocked down (700 ng/μl, injection conditions were the same as those used for RNA) was injected into the embryos at the 1-cell stage. The sequence of AMO used for crbn gene knockdown is 5′ […] 3′ (SEQ ID NO:1), and that used for lhx2 gene knockdown is 5′ […] 3′ (SEQ ID NO:2).
This process was carried out entirely in accordance with the technique of Ando et al. (H. Ando et al., Lhx2 mediates the activity of Six3 in zebrafish forebrain growth. Dev. Biol. 287(2): 456-468, 2005) except for the following procedure. […] When the effect of knocking down of A is rescued, whereas the effect of knocking down of B is not rescued by an inverted combination of A and B, within a 24-hour period after fertilization, it is determined that A lies functionally upstream of B. […]

The subject of experiment [4] is forebrain and midbrain of the zebrafish embryos. Briefly: CRBN overexpression experiment in the forebrain and midbrain. Format: in vivo. Here is the method: Adult fish were reared at a constant temperature of 28.5° C. and maintained and bred under a diurnal cycle of 14 hours of light-on and 10 hours of light-off. Fertilized eggs were secured by natural mating between males and females, and an aqueous solution of 600 ng/μl capped RNA synthesized in vitro was injected into the cytoplasm of the embryos before the first cleavage (1-cell stage) under conditions of a nitrogen gas pressure of 30 psi and a valve opening time of 30 msec (millisecond). Because the expression of all the genes except the lhx2 gene (i.e., the crbn gene, the six3.2 gene, and a gene encoding a protein composing an E3 ubiquitin ligase complex with crbn) has little impact on the embryonic development, even when systemically expressed, this method was used to obtain the first data.
as §1
Antibody staining of early neurons of zebrafish was performed by the following technique. The embryos 24 to 28 hours after fertilization were fixed at 4° C. for 12 hours in a 4% paraformaldehyde/phosphate buffer (pH 8.0). […]

Experiment [5] relates to glia cells and serotonin-producing cells of zebrafish. Briefly: Fluorescent staining of glia cells and serotonin-producing cells. Format: in vivo. Conditions: CRBN-overexpressing individual. On the procedure: Two-day-old zebrafish were used (for glia cell staining and serotonin-producing cell staining, zebrafish 56 hours and 49 hours after fertilization were used, respectively). Zebrafish were fixed with 4% paraformaldehyde (PFA) and then washed with phosphate buffer (PBS), followed by treatment with 10 μg/ml protease K for partial digestion of the epidermis. After the digestion reaction, the zebrafish were washed with PBST (PBS+0.5% Triton X-100) for 20 minutes and then fixed with PFA again. The fixed zebrafish were washed with PBST at room temperature for one hour, followed by blocking using PBST+5% goat serum. The resulting specimens were reacted with a monoclonal anti-glia antibody (zrf-1/zrf-2) or a rabbit anti-serotonin antibody at 4° C. overnight (12 to 18 hours). Subsequently, the specimens were washed with PBST+5% goat serum for one hour at room temperature, and secondary antibody reaction was carried out by substituting the antibody for a goat anti-mouse IgG antibody (Cy-2 conjugate for glia cell staining) or a goat anti-rabbit IgG antibody (Cy-5 conjugate for serotonin-producing cell staining) at 4° C. overnight (12 to 18 hours). Subsequently, the specimens were washed with PBST at room temperature for one hour. After washing, PBST was replaced by 30%, 50%, 70% glycerol/PBS and the whole zebrafish were mounted on glass slides to obtain preparations. Fluorescence was observed under excitation wavelength of Cy-2 and Cy-5 and the distribution of the glia cells or the serotonin-producing cells was recorded. It is to be noted that glia cells were observed from the lateral side of zebrafish, while the serotonin-producing cells were photographed from the dorsal side in order to observe the distribution of the cells along the midline.

T1 sequence (P22314 whole entry, other chains not shown, the tested form may be a part): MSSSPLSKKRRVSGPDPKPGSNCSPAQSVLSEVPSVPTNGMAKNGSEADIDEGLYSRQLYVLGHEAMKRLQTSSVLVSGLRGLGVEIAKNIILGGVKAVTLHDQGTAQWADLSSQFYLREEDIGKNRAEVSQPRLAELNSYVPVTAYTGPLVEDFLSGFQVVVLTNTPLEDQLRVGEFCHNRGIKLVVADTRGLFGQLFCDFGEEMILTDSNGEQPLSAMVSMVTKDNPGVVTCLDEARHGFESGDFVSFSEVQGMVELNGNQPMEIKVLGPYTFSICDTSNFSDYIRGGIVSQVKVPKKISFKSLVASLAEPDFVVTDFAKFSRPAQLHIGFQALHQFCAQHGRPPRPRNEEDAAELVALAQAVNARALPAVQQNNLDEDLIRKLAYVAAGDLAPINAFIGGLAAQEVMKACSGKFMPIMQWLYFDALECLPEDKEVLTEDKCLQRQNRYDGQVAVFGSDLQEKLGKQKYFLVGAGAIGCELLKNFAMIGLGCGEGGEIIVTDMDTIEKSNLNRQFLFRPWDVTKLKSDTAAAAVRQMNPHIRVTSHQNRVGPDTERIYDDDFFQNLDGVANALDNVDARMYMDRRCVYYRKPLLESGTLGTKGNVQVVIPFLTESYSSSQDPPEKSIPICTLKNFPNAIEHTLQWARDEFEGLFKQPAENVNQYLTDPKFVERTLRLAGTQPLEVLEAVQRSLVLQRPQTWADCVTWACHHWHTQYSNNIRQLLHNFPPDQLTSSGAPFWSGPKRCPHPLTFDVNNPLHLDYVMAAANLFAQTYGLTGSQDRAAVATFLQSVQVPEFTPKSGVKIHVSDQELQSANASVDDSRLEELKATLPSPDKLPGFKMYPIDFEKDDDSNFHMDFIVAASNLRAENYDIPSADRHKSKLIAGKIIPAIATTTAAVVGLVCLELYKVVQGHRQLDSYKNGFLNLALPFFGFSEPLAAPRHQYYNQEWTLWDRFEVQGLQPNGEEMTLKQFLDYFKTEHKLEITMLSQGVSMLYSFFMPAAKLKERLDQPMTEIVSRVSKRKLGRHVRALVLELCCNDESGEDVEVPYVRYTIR
T1 sequence (P62837 whole entry, other chains not shown, the tested form may be a part): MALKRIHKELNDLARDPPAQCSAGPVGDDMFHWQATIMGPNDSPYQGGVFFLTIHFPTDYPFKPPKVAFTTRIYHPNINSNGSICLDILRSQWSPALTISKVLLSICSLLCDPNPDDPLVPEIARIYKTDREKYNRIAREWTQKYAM

With “FH-CRBN complex: CRBN fused with a FLAG epitope tag and binding proteins, purified from mammalian cell lysate with M2 FLAG agarose beads”, the “detection of ubiquitinated proteins by immunoblotting” value in experiment [1] is recorded as “proteins that would not be detected in the absence of addition of CRBN were detected”.
Take `CC(C)C[C@@H](C=O)NC(=O)[C@H](CC(C)C)NC(=O)[C@H](CC(C)C)NC(=O)OCc1ccccc1` [MG132] (Cbz-Leu-Leu-Leu-aldehyde): the “bands representing the CRBN-containing proteins (self-ubiquitination)” value in experiment [2] is listed as “a number of bands representing the CRBN-containing proteins were detected”.

B1: CRBN: protein called CRBN (cereblon) that forms a ubiquitin ligase complex; overexpressed in zebrafish embryos by injected or lipofected crbn RNA (protein, UniProt Q68EH9 1-431, looked up)
Protein cereblon: MGNQLQLLPENEEEEEDDMETEDRDGEDVEKPSIINFDTSLPTSHAYLGSDMEEFHGRTLHDEDSVQNLPVLPHVALILIPGQTLPLQLFRPQEVSMFRNLVSQDRTFAVLAHSPDPSGTETKAEFGTTAEIYAFREEQEYGIETVKIKAVGRQRFRVHDIRTQADGIRQAKVQILPERILPDPLCALQFLPRLHTHSPQTKHTQTTPPQKRCSQNYRQKKLHCASMTSWPPWVYSLYDSKTLMSRVKKQLHEWDENLKDESLPTNPTDFSYRVAACLPIDDALRLQLLKIGSAIQRLRCELDIMDRCTSLCCKQCQDTEITSKNEIFSLSLYGPMAAYVNPHGYVHETLTVYKASNLNLIGRPSTLHSWFPGYAWTIAQCRTCSSHMGWKFSAVKKDLSPPRFWGLTRSALLPTIPQGEEGVEGSRLLCL
B1: the “brain size of embryo” value in experiment [3] (crbn gene-overexpressing embryo, compared to the normal embryo (FIG. 1, upper right)) is reported as “brain enlargement”; in experiment [3] (lhx2 gene knocked down while crbn gene overexpressed (FIG. 1, lower right)), “brain enlargement”. In experiment [4] (CRBN overexpression (FIG. 2, right)), the “morphology of the neuron network in the brain” value is “morphologically normal”. Further, in experiment [4] (CRBN overexpression, shape retained (FIG. 2, right)), the “enlargement of forebrain and midbrain in volume” value was “approximately 1.5 times”. For the same molecule, the “spatial distribution of glia cells and serotonin-producing cells” value in experiment [5] was “normal spatial distribution was maintained”. Further, the serotonin-producing cells entry in experiment [5] (49 hours after fertilization (FIG. 7)) was “increased”. Further, the glia cells entry in experiment [5] (56 hours after fertilization (FIG. 6)) is “increased”.
